Experimental data: the supplement of paper PMC9112550, “Optimization of the antimicrobial peptide Bac7 by deep mutational scanning” (BMC Biology, 2022)

What follows are sequences tested on Escherichia coli TOP10 (assay: shrunken log2 fold change of peptide-encoding DNA abundance (4.5 h post-induction vs induction); higher = less antimicrobial activity (less host growth inhibition)). Details: time post-induction: 4.5 h; library: site-saturation at positions 5, 18, 19, 20.
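Further: peptides expressed intracellularly from a pBAD plasmid library in pooled LB shake-flask culture, induced with 0.3% L-arabinose, DNA abundance read by NGS, three biological replicates, DESeq2 with apeglm shrinkage.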

Sequence | shrunken log2 fold change
RRIRIRPPRLPRPRPRPWQLPRP | -0.0817
RRIRKRPPRLPRPRPRPQKVPRP | -0.0143
RRIRQRPPRLPRPRPRPSPPPRP | 0.169
RRIRERPPRLPRPRPRPFAPPRP | 0.117
RRIRKRPPRLPRPRPRPDHMPRP | 0.0864
RRIRIRPPRLPRPRPRPGKHPRP | -0.222
RRIRMRPPRLPRPRPRPIMSPRP | 0.0205
RRIRDRPPRLPRPRPRPCCMPRP | 0.125
RRIRKRPPRLPRPRPRPNRAPRP | -0.0335
RRIRWRPPRLPRPRPRPSRFPRP | -0.0148
RRIRIRPPRLPRPRPRPFNVPRP | -0.217
RRIRHRPPRLPRPRPRPVSGPRP | -0.188
RRIRCRPPRLPRPRPRPYRDPRP | -0.16
RRIRTRPPRLPRPRPRPLGMPRP | 0.257
RRIRNRPPRLPRPRPRPCDVPRP | 0.0235
RRIRQRPPRLPRPRPRPIGHPRP | -0.281
RRIRTRPPRLPRPRPRPNWEPRP | 0.00854
RRIRDRPPRLPRPRPRPLWCPRP | -0.15
RRIRHRPPRLPRPRPRPSTGPRP | -0.24
RRIRFRPPRLPRPRPRPPQRPRP | 0.617
RRIRMRPPRLPRPRPRPGSFPRP | 1.04
RRIRLRPPRLPRPRPRPKDCPRP | -0.495
RRIRTRPPRLPRPRPRPTSHPRP | -0.478
RRIRSRPPRLPRPRPRPHNFPRP | -0.49
RRIRSRPPRLPRPRPRPWMHPRP | -0.0312

Sequence | shrunken log2 fold change
RRIRNRPPRLPRPRPRPVCRPRP | 0.0204
RRIRERPPRLPRPRPRPHPDPRP | 0.0161
RRIRDRPPRLPRPRPRPGFVPRP | 0.0977
RRIRYRPPRLPRPRPRPSCVPRP | -0.497
RRIRLRPPRLPRPRPRPRVPPRP | 0.264
RRIRNRPPRLPRPRPRPIMRPRP | 0.00621
RRIRMRPPRLPRPRPRPMNEPRP | -0.101
RRIRDRPPRLPRPRPRPHPDPRP | -0.116
RRIRQRPPRLPRPRPRPQDLPRP | -0.243
RRIRGRPPRLPRPRPRPYSLPRP | -0.158
RRIRMRPPRLPRPRPRPRDAPRP | 1.49
RRIRGRPPRLPRPRPRPMETPRP | 0.00487
RRIRIRPPRLPRPRPRPYKEPRP | 0.0131
RRIRKRPPRLPRPRPRPETRPRP | 0.269
RRIRRRPPRLPRPRPRPCFMPRP | -0.207
RRIRHRPPRLPRPRPRPGPYPRP | -0.226
RRIRHRPPRLPRPRPRPHLMPRP | -0.177
RRIRRRPPRLPRPRPRPKKCPRP | -0.325
RRIRSRPPRLPRPRPRPTIPPRP | -0.104
RRIRVRPPRLPRPRPRPNPCPRP | -0.461
RRIRDRPPRLPRPRPRPTLIPRP | 0.0896
RRIRTRPPRLPRPRPRPCFDPRP | -0.0899
RRIRCRPPRLPRPRPRPTVDPRP | 0.337
RRIRQRPPRLPRPRPRPSWKPRP | -0.244
RRIRARPPRLPRPRPRPLVFPRP | 0.397

Sequence | shrunken log2 fold change
RRIRCRPPRLPRPRPRPNMKPRP | -0.769
RRIRFRPPRLPRPRPRPFGIPRP | -0.197
RRIRPRPPRLPRPRPRPVRSPRP | 0.371
RRIRIRPPRLPRPRPRPVLYPRP | -0.598
RRIRLRPPRLPRPRPRPEIPPRP | -0.0569
RRIRVRPPRLPRPRPRPYRCPRP | -0.0108
RRIRMRPPRLPRPRPRPDHMPRP | 0.0296
RRIRKRPPRLPRPRPRPVMRPRP | 0.74
RRIRVRPPRLPRPRPRPKPTPRP | 0.707
RRIRQRPPRLPRPRPRPLYDPRP | -0.226
RRIRTRPPRLPRPRPRPQAWPRP | 4.37
RRIRQRPPRLPRPRPRPAWLPRP | -0.123
RRIRRRPPRLPRPRPRPGHSPRP | -0.0814
RRIRHRPPRLPRPRPRPYCHPRP | -0.0851
RRIRTRPPRLPRPRPRPNQSPRP | -0.187
RRIRMRPPRLPRPRPRPDMRPRP | 0.0245
RRIRDRPPRLPRPRPRPHSTPRP | -0.0545
RRIRARPPRLPRPRPRPCTEPRP | -0.0123
RRIRFRPPRLPRPRPRPQHEPRP | -0.25
RRIRMRPPRLPRPRPRPDREPRP | -0.00516
RRIRSRPPRLPRPRPRPHILPRP | -0.0674
RRIRKRPPRLPRPRPRPGATPRP | 1.09
RRIRGRPPRLPRPRPRPMTPPRP | 1.07
RRIRIRPPRLPRPRPRPVCPPRP | -0.0123
RRIRPRPPRLPRPRPRPDHFPRP | -0.0536
